The results in this text go back to patent publication US12060433B2, “CD73 inhibitor and A2A/A2B adenosine receptor inhibitor combination therapy” (Incyte Corporation, priority 2020, dated 2024).

For assay [1], the target named is T1, human CD73 (SEQ ID NO: 70) (Homo sapiens, UniProt P21589).
T1 construct: purchased BPS Bioscience
T1 sequence (P21589 27-549): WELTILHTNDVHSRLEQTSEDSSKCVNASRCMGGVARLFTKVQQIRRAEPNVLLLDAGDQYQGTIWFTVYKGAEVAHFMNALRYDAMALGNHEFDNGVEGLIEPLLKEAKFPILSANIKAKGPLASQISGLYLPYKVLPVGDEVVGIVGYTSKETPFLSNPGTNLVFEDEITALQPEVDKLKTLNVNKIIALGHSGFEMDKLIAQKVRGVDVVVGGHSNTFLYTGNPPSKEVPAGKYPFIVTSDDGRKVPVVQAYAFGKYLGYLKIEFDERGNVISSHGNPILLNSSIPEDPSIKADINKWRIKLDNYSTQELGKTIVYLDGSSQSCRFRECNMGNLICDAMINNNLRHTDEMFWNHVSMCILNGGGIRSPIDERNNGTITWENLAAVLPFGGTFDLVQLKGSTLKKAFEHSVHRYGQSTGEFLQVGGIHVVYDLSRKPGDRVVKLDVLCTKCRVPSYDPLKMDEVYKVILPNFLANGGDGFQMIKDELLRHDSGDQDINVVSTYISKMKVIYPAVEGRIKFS
As to the kind of experiment: SPR (Biacore 8K) binding affinity and kinetics to human CD73. How it is done:
The SPR running buffer (10 mM HEPES, 150 mM NaCl, 3 mM EDTA and 0.05% v/v Surfactant P20, pH 7.4) was prepared from 10×HBS-EP Buffer (GE Healthcare). Anti-human Fc antibodies (GE Healthcare) were immobilized via amine coupling on all sixteen flow cells of an S series sensor chip CM5 (GE Healthcare). The immobilization levels were ˜9000 RU for all flow cells. The desired capturing level of anti-CD73 antibody was achieved by flowing appropriate concentration of anti-CD73 antibody through the active flow cell of each channel. The non-cleavable ADP analogue APCP (adenosine-5′-(α,β-methylene) diphosphate) with the presence of Zn^2+ can be used to shift the CD73 conformational equilibrium from open towards closed. Therefore, recombinant CD73 was incubated with SPR running buffer in the presence of 100 μM APCP and 10 μM ZnCl2 (closed SPR running buffer) to study the binding of anti-CD73 antibody to the CD73 in the closed conformation. To achieve this, the ABA injection feature in Biacore 8K was used. For open conformation, the ABA injection sequence started with 60 seconds injection of running buffer. Then, CD73 3-fold serial dilution concentration series prepared from CD73 stock (BPS Bioscience) and running buffer were injected for 180 seconds immediately followed by running buffer for 240 seconds. For closed conformation, the normal SPR running buffer was replaced by closed SPR running buffer. Surface was regenerated with 30 seconds injection of 3 M MgCl2. […] Binding affinities and kinetic association and dissociation rate constants to human, cynomolgus, and mouse CD73 in either open or closed conformations are shown in Table 8 below. The results in Table 8 ensure cynomolgus pharmacokinetic data will reflect human pharmacokinetic data.
Binding affinities and kinetic association and dissociation rate constants to human, cynomolgus, and mouse CD73 in either open or closed conformations are shown in Table 9 below.

Assay [2] concerns the target T2, recombinant human CD73 (rhuCD73) (SEQ ID NO:70) (Homo sapiens, UniProt P21589).
T2 sequence (P21589 27-549): T1 sequence (P21589 27-549)
Put plainly: Soluble CD73 inhibition (AMP-Glo). Conditions: 0.008 μg/mL rhuCD73, 100 μM AMP. Type of assay: biochemical. How it is done:
To measure the ability of the CD73 antibodies to inhibit CD73 activity of recombinant protein, recombinant human CD73 (rhuCD73) (SEQ ID NO:70) was added to 96-well plates at a final concentration of 0.008 μg/mL with the indicated concentration of antibodies (FIG. 4) or adenosine 5′-[α,β-methylene]diphosphate (APCP) and incubated at 37° C. 5% CO2 for 30 minutes. After the 30 minute incubation, AMP was added to a final concentration of 100 μM and the reactions were incubated an additional 3 hours at 37° C. 5% CO2. 25 μL of supernatant was transferred into new 96-well plates. The AMP-Glo Assay was used according to the manufacturer's instructions. RLU is a directly correlated with the AMP concentration in this assay. Results are depicted in FIG. 4.
Results are depicted in FIG. 9.

Where [3] appears, read: human CD73, closed conformation (100 μM APCP, 10 μM ZnCl2).
Where [4] appears, read: human CD73, open conformation, 25° C.

B1: CL25: chimeric anti-human CD73 monoclonal antibody, murine VH SEQ ID NO:26 and VL SEQ ID NO:27 with human IgG1 Fc (antibody, V domains shown)
VH: QVQLQQSGAELARPGASVKLSCRASGYTFTSYGLSWVKQRTGQGLEWIGEIYPGSGNTYYNEKFKGKATLTADKSSSTAYMELRSLTSEDSAVYFCARYDYLGSSYGFDYWGQGTTLTVSS
VL: DIVMTQSHKFMSTSVGDRVSITCKASQDVSTAVAWYQQKPGQSPKLLIYSASYRYNGVPDRFTGSGSGTDFTFTISSVQAEDLAVYYCQQHYNTPYTFGGGTKLEIK
modifications: human IgG1 Fc constant regions without entry
In assay [1] (setting [3]), B1 had a ka of 903000 M⁻¹ s⁻¹ and a kd of 0.000344 s⁻¹. In assay [1] (setting [4]), this molecule registered a ka above 1e+06 M⁻¹ s⁻¹ and a kd of 0.000394 s⁻¹. Besides, in assay [2], the “hook-effect in inhibition of recombinant CD73” value was “no hook-effect” and the “inhibition of recombinant CD73” value is given as “high potency”.
